Article PMC2790986

B1: PON2 (paraoxonase-2), Cys311 and Ser311 variants: N254Q (printed N254G) (protein)
parent chain: MGRLVAVGLLGIALALLGERLLALRNRLKASREVESVDLPHCHLIKGIEAGSEDIDILPNGLAFFSVGLKFPGLHSFAPDKPGGILMMDLKEEKPRARELRISRGFDLASFNPHGISTFIDNDDTVYLFVVNHPEFKNTVEIFKFEEAENSLLHLKTVKHELLPSVNDITAVGPAHFYATNDHYFSDPFLKYLETYLNLHWANVVYYSPNEVKVVAEGFDSANGINISPDDKYIYVADILAHEIHVLEKHTNMNLTQLKVLELDTLVDNLSIDPSSGDIWVGCHPNGQKLFVYDPNNPPSSEVLRIQNILSEKPTVTTVYANNGSVLQGSSVASVYDGKLLIGTLYHRALYCEL
B2: PON2 (paraoxonase-2), Cys311 and Ser311 variants: N323A (protein)
parent chain: B1 parent chain
B3: PON2 (paraoxonase-2), Cys311 and Ser311 variants: N254A/N323A (protein)
parent chain: B1 parent chain
B4: PON2 (paraoxonase-2), Cys311 and Ser311 variants: N254A (protein)
parent chain: B1 parent chain
B5: PON2 (paraoxonase-2), Cys311 and Ser311 variants: N323Q (protein)
parent chain: B1 parent chain

Assay: 3OC12-HSL inactivation by CHO lysate, bioassay
Settings: glycan lost; control: wild-type PON2 Cys311

Protein | enzymatic_activity
B1 | no change
B2 | decreases
B3 | decreases
B4 | no change
B5 | decreases
